experiment: soluble on expression in E. coli; label from the status in PepcDB or PDB records

Soluble on expression in E. coli, not soluble:
MGSDKIHHHHHHMKGFMNMFTNDQFKSLLIKTLERKSSSNYYEGGNEIVSKMKISEVTLDETDDFTYYKGYKKGWNTLCTYLKIRVPFDDLDFFESHKDLITQTASSIYDKQGDNVLVDTILVPLPENYEVINFSQLKISDVVSQAIEDAESFMSNGEYQRAFDRVHTAFHGYLIEILKKYEITVPRDENLSKLYSRIQQLIEKEIQPTELADIVKTTIRSSNGMISSLNEARNRHSLAHPNTNIIGKREAKLIIGISSTVTDYISGYLDK
MGSDKIHHHHHHMKGGTEPVETSKMEKAAALLGGMIDLPTIPAVAIQVLSLLDEPEVDVDDVAELVLTDQVMAARVLKMVNSPLYRPATEITSLKGALVYLGLRHIREFILTCSIIQCSEGKDGVLGVKPFWEHSFGVGIVARLIAEKVGYHDTEKAYIGGIIHDIGEVFLSYYMRDEFQKIVDSISDKPHKLVEAEEEFLGTTHCEIGLCIARAWRFPDDYCEVIAHHHAPQEAKNAPRLTAIVNLADLFCNVRQLDYGGKAWVSFSLADEPAWGMLQGPGSRLSELDIERFCYELDDRVEEISELVGNIFKNG
MGSDKIHHHHHHMKGGTSKFKTHTETLYKKKKWSSVSEKRPQKCPSQCLESKQPQVSVLGKRRRASQTPAQETLESEWPQKAKRKKRRREPQTPAQETLESEWPQKAKKKKRRGEPQTPTQESLESEQPPVSLLGKRRRESQTPAQENSESEQPRKAKRRRKKRKGSQQPTSSLLKTPETFLKAKKTTSAHKKKKNSVLEVDMETGIILVDKENMENLLETSRKDVDIVYVDMSKGQRSAKVRETGELPAAKPQEHGCRELLGDVRSRKKQKHLQKVAPWDVVQGSQPESISLPPSEPLSSEDLEGKSTEAAVFCKKKSKKNVFRSQELEPIPDSLDDSETISERLDSTHHGGAVGAGEECESTKESHSIKKKSKKKKHKSVALATSSDSASVTDSKAKNALVDSSEGSGAVREEDVDHRPAEAEAQACSTEKHREAMQRLEPTHEEESNSESASNSAARHISEDRRESDDSDVDLGSAVRQLREFIPDIQERAATTIRRMYRDDLGRFKEFKAQGVAIRFGKFSAKENKQIEKNVQDFLSLTGIESADKLLYTDRYPEEKTLITNLKRKHAFRLHIGKGIARPWKLVYYRAKKIFDVNNYKGRYNEEDTKKLKAYHSLHGNDWKKIGAMVARSSLSVALKFSQIGGTRNQGAWSKAETQRLIKAVEDVILKKMSPQELRELDSKLQEDPEGRLSIVREKLYKGISWVEVEARVETRNWMQCKSKWTEILTKRMTHGGFVYRGVNALQAKITLIERLYELNVNDANEIDWEDLASAIGDVPPPFVQAKFYKLKAACVPFWQKKTFPEIIDYLYKNSLPLLKEKLDKKMKKKDGQIQTPAAPKQDFLFKDIFHCDDDSDEGSPEEPSASDVQ
MGSDKIHHHHHHMKGNAPVLAAVDISKGFRVYRAPHQRMLQAIWGERKKFYSEFWALRNVSFQVFPGEVVGVIGCNGSGKSTLLQILAGTLRPTSGQVVRPERVAALLELGAGFNMEYTGRENIIFNAMLLGLGEQEISERLDEIIQFADIGEFIDRPVRTYSSGMFVRLAFSIAAYVDADVLIVDEALAVGDAAFQFKCLNRLEELLLKGITILLVSHDIQLIKSYCSRAIYLSKGRVIFDGDCETATELYLRDSIETQRAEVRSGSLIASGEHGNSVIAYGNGQGRFLSIRMGVLDEARDYFDSGERVWVEVLVQFDLPVPEHPKITLTIRDQRGYNLYGINNLLLGKALNVEPDGRLRTRISFDCDLQAGEYALTFRLENSLSESVCELMDKKVNAAIFRVFNSPKCFDAVVNLHGAFEPVPFCCETRATQ
MGSDKIHHHHHHMKHIAVIGAGLGGLSAAISLASKGFKVTVIERNEHIGGKMMPITSEGHRFDFGPNTITMPEIFQSVILESGADPDDYFTFEKLTRHTVNHFPDGRSLTFASGREAMRTEVDRFTKGQLAKNDITGYQDEVRELYNIAKQQFFINIDSYFNFSLLRDMTKVHPFKTLHGLHKKYFKDPQLIQALDRYATYIGSSPFQAPATFGLIAHLELNDGVYFTRGGNTAIAEGFARRARELGVTFRLGDEVTQIEVTNQLATEIELNHVDYLSVDFIVLNGDLLTQYPRLISETVRPDFKNPTPAQMEPSISAYVRCIGLGRRIAGLAHHNVFFSSDYEAEFEALFNQHRYAEEPTIYISNSSVTAPEMGEAGDNLFVLVNAPATHKGSAVDFDTYDKIIDQRLQQFGIDITSDVLFEQRITPQDIEQKFSAYHGSLYGLSSNGTRGAFMRPSNRSKNVHNLFFAGGSTHPGGGSPMVTLSGKLASERIVSAVAATL
MGSDKIHHHHHHMKIAFDVDVIKHLPITQMVRQVSEWGYKYIEQSPHPRINPFYKHPKAGRDTMQEYKRALQNYGVEISSFIVVYRWSGPDEERRRAAVTNWKRMIEIAVDMGVQVINTELSGTPDEPEICEEMWYRSMEELLPIVEREGIRIEIQSHPWDFCELNDETVDMVQSLRSDNVTYLYSAPHGFFYDKGQGDVARMLNYAGADLSHVLLADTHNHTLPCRYIMNPPGVNATIHQHIGLGEGEVDFDALFQALREMDFANRTFKVGGEAIITTSLFGYPEKMSVQAVETRERIERELLGR
MGSDKIHHHHHHMKIALIIENSQAAKNAVVHEALTTVAEPLGHKVFNYGMYTAEDKASLTYVMNGLLAGILLNSGAADFVVTGCGTGMGSMLAANAMPGVFCGLVIDPTDAFLFGQINDGNAISMPYSKGFGWAAELNLQDVYRKLFDGERGLGYPRERAEIMRKNRGILRELKDASCRDMLTVLKTVDQDLLRAAIAGEKFAELFYPNCKDDAIANYLRSLDA
MGSDKIHHHHHHMKIAQIAPLAERVPPKLYGGTERIVHCLTEELVRLGHDVTLFASGDSLTSAELVPCCDVALRLNPRVQDFLPHHIAMLEEVRRRAPQFDVLHFHIEFLHFPLIRDFADRTVTTLHTRLDLPDLQPFYLAFPDIPLVSISQHQRVPMPPVNWRGTVLHGLDPTVLPLREGRSDEYLAFLGRIAPEKGPDRAIEIAARSGMPLKIAAKIDAQDRAYWEAVVEPLIASHSNVEYIGEIDEGQKADFLGNAAALLFPINWPEPFGLVMIEAMACGTPVLAFRYGSAPEVIDDGVSGILVDTVEQAVESLGRVLELDRRKVRESFETRFTTERMTRDYLDIYQNLPGVLRQTASTPQGEAKKVGLEAA
MGSDKIHHHHHHMKIDEFNKALDRGEISPLYYFHGDEPHLMERAVKRLMDSAVPPDFRDFNLDVFYGNECKGDEVASVAQTLPMFADRRMVLVKRAGDLSAAALEILASCVADPPPTTCLVFMGEKVDQRKKFFQEMKKKGELVECKRPYENQLGAFIREEAKGLGKRVEPAAAEMLVYLVGNNLGELSTQLEKVALYVGQRETISVEDVRGIVSDTKVESVFDLTNALGERNVVKALRSLATILRDGEAPLMLLAMIARHFRQLWRVRDLMAQKVPQQDISRLAGINPYFIKGVMAQARNFSASELKKVFEGLYATDLALKGGGAKRPTLTLEKLVMDVCGMGSR
MGSDKIHHHHHHMKIDLNADLGEGCASDAELLTLVSSANIACGFHAGDAQIMQACVREAIKNGVAIGAHPSFPDRENFGRSAMQLPPETVYAQTLYQIGALATIARAQGGVMRHVKPHGMLYNQAAKEAQLADAIARAVYACDPALILVGLAGSELIRAGKQYGLTTREEVFADRGYQADGSLVPRSQSGALIENEEQALAQTLEMVQHGRVKSITGEWATVAAQTVCLHGDGEHALAFARRLRSAFAEKGIVVAA
MGSDKIHHHHHHMKIELENCQKSLTLKDFEEIESKLGYALPERLKEFYLQYNGGSTKQTASINKYQEVEIEDFFPFKYNKDFKNDPRYTAEGETLELRKAGAISDSILIFAMESTDEGRITIDLVNGKIYLYPIVGMQDVIFNFEEPRLVANSIDDFFDNLVVLDGHKAIPAIEEIEEGQTETAGVMPELSDCSASLTKEDIKNFEVELNVKIPAGMKNFYLKFNGGMPSPYCYQPQDEDLDRVEINAFFPIKERTNAFETIEVIAKGIWSRNLMPCNLLPFAMDSGGNYYALNLKNKKIYYYLTDEWDENASREYNFETNTRYIAQSFNYFINHFIEEEE

— the DeepSol protein solubility set
